Values of other authors in publication PMC12805100.
Like-named read-outs stand apart in the source and are kept apart here.

How the values were obtained:
[1] = biological target: Calmodulin (Homo sapiens) (UniProt P0DP23)
[2] = biological target: Calmodulin (Homo sapiens) (UniProt P0DP23); remark: listed apart in the source

- Kd [1]: 100 nM
- Kd [2]: 600 nM
Substance: TRPA1 DCTCaMBE (from UniProt O75762)
